Measurements as given in publication PMC11865472, “Structures of TGF-β with betaglycan and signaling receptors reveal mechanisms of complex assembly and signaling” (Nature Communications, 2025).

Target: T1, inhibin A (InhA), mature heterodimer, unlabelled (UniProt P05111 233-366; P08476 311-426)
T1 construct: inhibin α subunit, residues 233-366 of NP_002182.1; inhibin βA subunit, residues 311-426 of NP_002183.1; The His and Strep tags stood on the two chains of the pro-inhibin; source: expi293F, secreted as pro-inhibin, purified by His and Strep tags; mature dimer purified on C18 RPC; copies: 1 + 1
T1 sequence (looked up) 1: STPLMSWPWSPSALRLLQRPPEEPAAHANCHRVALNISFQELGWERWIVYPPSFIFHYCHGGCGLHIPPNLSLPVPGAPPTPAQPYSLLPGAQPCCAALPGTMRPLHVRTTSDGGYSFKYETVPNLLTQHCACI
T1 sequence (looked up) 2: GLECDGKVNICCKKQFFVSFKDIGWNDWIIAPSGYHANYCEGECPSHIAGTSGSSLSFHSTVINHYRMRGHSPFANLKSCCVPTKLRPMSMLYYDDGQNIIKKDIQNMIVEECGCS
Assay: NMR titration; methyl 1H-13C SOFAST-HMQC of labelled BG_ZP-C (15-25 µM) with growth factors; 25 mM 2H-glycine pH 11.0 or 25 mM phosphate pH 6.0; 37 °C
Details: both partners purified

B1: rat betaglycan ZP-C domain, bacterially expressed, isotopically labelled (domain or fragment, UniProt P26342 590-757, looked up)
chain: GNATFNMELYNTDLFLVPSPGVFSVAENEHVYVEVSVTKADQDLGFAIQTCFLSPYSNPDRMSDYTIIENICPKDDSVKFYSSKRVHFPIPHAEVDKKRFSFLFKSVFNTSLLFLHCELTLCSRKKGSLKLPRCVTPDDACTSLDATMIWTMMQNKKTFTKPLAVVLQ
modifications: 2H, 13C-methyl Isoleucine, Leucine, Valine (ILV) labeled
notes: betaglycan (TGFBR3), rat, residues 590-757 of NCBI NP_058952; A thrombin site lies between the Trx-His6 cassette and the domain; also called 13C-methyl-Ile BG_(ZP-C); ILV labeled BG_(ZP-C)
binding result: binds
